According to patent US20220372147A1 (UNIVERSIT T STUTTGART, published 2022):
Positions count from the first letter of the chain named. Names and notes keep the numbering of the source.

Legend:
[1] = molecular target: T1, HER3 on HER3-expressing cancer cells (LIM1215, BT474) (UniProt P21860 20-1342, limits assumed); test: flow cytometry on HER3-expressing LIM1215 cells, PE anti-human Fc
T1 construct: whole, on cells; also called HER3-expressing LIM1215 cells; HER3-expressing BT474 cells

[2] = molecular target: T2, CD3 on CD3-expressing Jurkat cells (human, UniProt P07766 23-207); test: flow cytometry on CD3-expressing Jurkat cells, PE anti-human Fc
T2 construct: whole, on cells
T2 sequence (P07766 23-207): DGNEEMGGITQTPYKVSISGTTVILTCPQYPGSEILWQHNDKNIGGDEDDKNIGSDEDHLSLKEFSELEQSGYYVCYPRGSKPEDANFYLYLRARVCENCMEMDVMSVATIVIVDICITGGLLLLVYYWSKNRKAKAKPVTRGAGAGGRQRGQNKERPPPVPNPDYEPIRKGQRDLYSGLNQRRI

[3] = molecular target: T1, HER3 on HER3-expressing cancer cells …; test: cell-based or functional assay
[4] = molecular target: T1, HER3 on HER3-expressing cancer cells …; test: flow cytometry on HER3-expressing BT474 cells, PE anti-human Fc
[5] = molecular target: T3, His-tagged HER3 protein, extracellular domain (ECD) of HER3 (aa 21-643) (UniProt P21860 21-643); test: ELISA, immobilized HER3-His, anti-human Fc-HRP detection
T3 construct: range 21-643; also called HER3-His; not shown: His-tag

[6] = molecular target: T4, MET Fc fusion protein, extracellular domain (ECD) of MET (aa 25-787) (UniProt P08581 25-787); test: ELISA, immobilized MET-Fc, anti-human Fab-HRP detection
T4 construct: range 25-787; not shown: Fc part
T4 sequence (P08581 25-787 limits assumed): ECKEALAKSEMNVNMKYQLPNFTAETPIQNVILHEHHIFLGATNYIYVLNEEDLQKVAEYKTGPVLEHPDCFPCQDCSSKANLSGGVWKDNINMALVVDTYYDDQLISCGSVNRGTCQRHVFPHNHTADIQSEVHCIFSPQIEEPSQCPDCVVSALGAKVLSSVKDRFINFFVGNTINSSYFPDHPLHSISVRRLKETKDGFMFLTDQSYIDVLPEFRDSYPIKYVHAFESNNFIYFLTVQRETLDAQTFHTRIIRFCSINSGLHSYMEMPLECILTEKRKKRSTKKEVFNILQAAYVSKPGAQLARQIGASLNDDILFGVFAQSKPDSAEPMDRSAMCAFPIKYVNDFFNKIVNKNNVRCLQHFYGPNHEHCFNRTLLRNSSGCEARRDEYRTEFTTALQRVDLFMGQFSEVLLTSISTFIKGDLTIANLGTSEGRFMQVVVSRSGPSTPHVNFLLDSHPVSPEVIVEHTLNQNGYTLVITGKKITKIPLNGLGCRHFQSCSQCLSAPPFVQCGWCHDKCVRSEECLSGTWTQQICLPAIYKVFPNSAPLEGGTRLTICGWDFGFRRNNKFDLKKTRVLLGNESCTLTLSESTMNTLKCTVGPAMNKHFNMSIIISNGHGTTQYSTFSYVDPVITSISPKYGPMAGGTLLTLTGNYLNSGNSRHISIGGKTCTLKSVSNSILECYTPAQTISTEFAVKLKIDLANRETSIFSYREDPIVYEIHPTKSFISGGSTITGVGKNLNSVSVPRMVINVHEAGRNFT

[7] = molecular target: T5, HER3-Fc fusion protein, extracellular domain (ECD) of HER3 (aa 21-643) fused to an Fc part (UniProt P21860 21-643); test: ELISA, immobilized HER3-Fc, anti-His-HRP detection
T5 construct: range 21-643; not shown: Fc part

[8] = molecular target: T6, mouse CD3 on murine spleenocytes (mouse, UniProt P22646 22-189); test: flow cytometry on murine spleenocytes (mouse CD3), PE anti-human Fc
T6 construct: whole, on cells; also called murine CD3-expressing murine spleenocytes; moCD3
T6 sequence (P22646 22-189): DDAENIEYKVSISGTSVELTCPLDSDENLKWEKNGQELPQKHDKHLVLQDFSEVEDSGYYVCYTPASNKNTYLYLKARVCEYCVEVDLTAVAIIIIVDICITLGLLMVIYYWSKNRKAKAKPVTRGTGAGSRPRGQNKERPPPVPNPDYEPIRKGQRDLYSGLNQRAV

[9] = molecular target: T7, FAP on FAP-expressing HT1080-FAP cells (UniProt Q12884 1-760, limits assumed); test: flow cytometry on FAP-expressing HT1080-FAP cells, PE anti-human Fc
T7 construct: whole, on cells

B1: bispecific, trivalent eIg-Fab4 targeting HER3 and CD3 (bispecific antibody)
light 1: QAGLTQPPAVSVAPGQTASITCGRDNIGSRSVHWYQQKPGQAPVLVVYDDSDRPAGIPERFSGSNYENTATLTISRVEAGDEADYYCQVWGITSDHVVFGGGTKLTVLGQPKAAPSVTLFPPSSEELQANKATLVCLISDFYPGAVTVAWKADSSPVKAGVETTTPSKQSNNKYAASSYLSLTPEQWKSHRSYSCQVTHEGSTVEKTVAPTECS
heavy 1: not shown
light 2: not shown
heavy 2: QVQLQQSGPGLVKPSQTLSLTCAISGDSVSSNRAAWNWIRQSPSRGLEWLGRTYYRSKWYNDYAQSLKSRITINPDTPKNQFSLQLNSVTPEDTAVYYCARDGQLGLDALDIWGQGTMVTVSSASTKGPSVFPLAPSSKSTSGGTAALGCLVKDYFPEPVTVSWNSGALTSGVHTFPAVLQSSGLYSLSSVVTVPSSSLGTQTYICNVNHKPSNTKVDKKVEPKSCGGSGGGGSGGQVQLVQSGAEVKKPGSSVKVSCKASGGTFSGYTMNWVRQAPGQGLEWMGLINPYKGVSTYNGKFKDRVTITADKSTSTAYMELSSLRSEDTAVYYCARSGYYGDSDWYFDVWGQGTLVTVSSDFTPPTVKILQSSCDGGGHFPPTIQLLCLVSGYTPGTINITWLEDGQVMDVDLSTASTTQEGELASTQSELTLSQKHWLSDRTYTCQVTYQGHTFEDSTKKSADSNGTDKTHTCPPCPAPPVAGPSVFLFPPKPKDTLMISRTPEVTCVVVDVSHEDPEVKFNWYVDGVEVHNAKTKPREEQYNSTYRVVSVLTVLHQDWLNGKEYKCKVSNKGLPSSIEKTISKAKGQPREPQVCTLPPSRDELTKNQVSLSCAVKGFYPSDIAVEWESNGQPENNYKTTPPVLDSDGSFFLVSKLTVDKSRWQQGNVFSCSVMHEALHNHYTQKSLSLSPGK
[1]
  EC50: 0.21 nM
[2]
  EC50: 5.9 nM
[3]
  EC50 value in cell killing (PBMC-mediated cytotoxicity on BT-474 cells, crystal violet): 0.2 nM
  EC50 value in cell killing (PBMC-mediated cytotoxicity on LIM1215 cells, crystal violet): 0.1 nM
[4]
  EC50: 0.6 nM

B2: bispecific bivalent anti-cMET x anti-HER3 eIgG1 (EHD2 configuration HC1-LC2) (bispecific antibody)
light 1: B1 light 1
heavy 1: not shown
heavy 2: not shown
light 2: DIQMTQSPSSLSASVGDRVTITCKSSQSLLYTSSQKNYLAWYQQKPGKAPKLLIYWASTRESGVPSRFSGSGSGTDFTLTISSLQPEDFATYYCQQYYAYPWTFGQGTKVEIKRTDFTPPTVKILQSSCDGGGHFPPTIQLLCLVSGYTPGTINITWLEDGQVMDVDLSTASTTQEGELASTQSELTLSQKHWLSDRTYTCQVTYQGHTFEDSTKKSADSN
notes: Four different polypeptide chains, knob-into-hole Fc
[5]
  EC50: 1 nM
[6]
  EC50: 3.8 nM

B3: bispecific bivalent anti-cMET x anti-HER3 eIgG2 (EHD2 configuration HC2-LC1) (bispecific antibody)
light 1: B1 light 1
heavy 1: not shown
heavy 2: not shown
light 2: B2 light 2 with C129S, N154Q, S217C
notes: as for B2
[5]
  EC50: 1.4 nM
[6]
  EC50: 5.4 nM

B4: Fv3-43-hetEHD2 eFab molecule 8 (C102T Fd; C14T,N39Q light chain) (Fab, V domains shown)
VH: QVQLQQSGPGLVKPSQTLSLTCAISGDSVSSNRAAWNWIRQSPSRGLEWLGRTYYRSKWYNDYAQSLKSRITINPDTPKNQFSLQLNSVTPEDTAVYYCARDGQLGLDALDIWGQGTMVTVSS
VL: QAGLTQPPAVSVAPGQTASITCGRDNIGSRSVHWYQQKPGQAPVLVVYDDSDRPAGIPERFSGSNYENTATLTISRVEAGDEADYYCQVWGITSDHVVFGGGTKLTVLD
notes: Monovalent anti-HER3 Fab-like molecule; His-tag on the Fd chain
[7]
  EC50: 6.2 nM

B5: Fv3-43-hetEHD2 eFab molecule 1 (C102A Fd; C14A,N39Q light chain) (Fab, V domains shown)
VH: B4 VH
VL: B4 VL
notes: Monovalent anti-HER3 Fab-like molecule; His-tag on the Fd chain; also called C14A,N39Q:N39,C102A
[7]
  EC50: 12.1 nM

B6: Fv3-43-hetEHD2 eFab molecule 2 (C102W Fd; C14T,N39Q light chain) (Fab, V domains shown)
VH: B4 VH
VL: B4 VL
notes: as for B4
[7]
  EC50: 7.3 nM

B7: Fv3-43-hetEHD2 eFab molecule 3 (C102N Fd; C14A,N39Q light chain) (Fab, V domains shown)
VH: B4 VH
VL: B4 VL
notes: Monovalent anti-HER3 Fab-like molecule; His-tag on the Fd chain; also called C14A,N39Q:N39,C102N
[7]
  EC50: 4.8 nM

B8: Fv3-43-hetEHD2 eFab molecule 4 (C102T Fd; C14N,N39Q light chain) (Fab, V domains shown)
VH: B4 VH
VL: B4 VL
notes: Monovalent anti-HER3 Fab-like molecule; His-tag on the Fd chain; also called C14N,N39Q:N39,C102T
[7]
  EC50: 3 nM

B9: Fv3-43-hetEHD2 eFab molecule 5 (C102A Fd; C14W,N39Q light chain) (Fab, V domains shown)
VH: B4 VH
VL: B4 VL
notes: as for B4
[7]
  EC50: 11 nM

B10: Fv3-43-hetEHD2 eFab molecule 6 (C102N Fd; C14T,N39Q light chain) (Fab, V domains shown)
VH: B4 VH
VL: B4 VL
notes: Monovalent anti-HER3 Fab-like molecule; His-tag on the Fd chain; also called C14T,N39Q:N39,C102N
[7]
  EC50: 4.1 nM

B11: Fv3-43-hetEHD2 eFab molecule 7 (C102T Fd; C14W,N39Q light chain) (Fab, V domains shown)
VH: B4 VH
VL: B4 VL
notes: as for B4
[7]
  EC50: 7.1 nM

B12: Fv3-43-hetEHD2 eFab molecule 9 (C102S Fd; C14S,N39Q light chain) (Fab, V domains shown)
VH: B4 VH
VL: B4 VL
notes: N-glycan only on the Fd EHD2-2 domain; also called originally used eFab (C14S,N39Q:N39,C102S)
[7]
  EC50: 3.7 nM

B13: bispecific, trivalent eIg-Fab2 targeting HER3 and CD3 (bispecific antibody)
light 1: B1 light 1
light 2: not shown
heavy 1: not shown
heavy 2: not shown
[1]
  EC50: 1.3 nM
[2]
  EC50: 0.2 nM
[4]
  EC50: 1.7 nM

B14: bivalent and monospecific eIg molecule targeting HER3 (antibody, V domains shown)
VH: B4 VH
VL: B4 VL with D109G
notes: Homodimerizing Fc; also called monospecific, bivalent eIg antibody; anti-HER3 bivalent eIg
[5]
  EC50: 1.4 nM

B15: bivalent and bispecific eIg molecule targeting FAP and mouse CD3, molecule I (bispecific antibody)
light 1: DIQMTQSPSSLSASVGDRVTITCRASKSVSTSAYSYMHWYQQKPGKAPKLLIYLASNLESGVPSRFSGSGSGTDFTLTISSLQPEDFATYYCQHSRELPYTFGQGTKLEIKRRTVAAPSVFIFPPSDEQLKSGTASVVCLLNNFYPREAKVQWKVDNALQSGNSQESVTEQDSKDSTYSLSSTLTLSKADYEKHKVYACEVTHQGLSSPVTKSFNRGEC
heavy 1: QVQLVQSGAEVKKPGASVKVSCKASGYTFTENIIHWVRQAPGQGLEWMGWFHPGSGSIKYNEKFKDRVTMTADTSTSTVYMELSSLRSEDTAVYYCARHGGTGRGAMDYWGQGTLVTVSSASTKGPSVFPLAPSSKSTSGGTAALGCLVKDYFPEPVTVSWNSGALTSGVHTFPAVLQSSGLYSLSSVVTVPSSSLGTQTYICNVNHKPSNTKVDKKVEPKSCGTDKTHTCPPCPAPPVAGPSVFLFPPKPKDTLMISRTPEVTCVVVDVSHEDPEVKFNWYVDGVEVHNAKTKPREEQYNSTYRVVSVLTVLHQDWLNGKEYKCKVSNKGLPSSIEKTISKAKGQPREPQVCTLPPSRDELTKNQVSLSCAVKGFYPSDIAVEWESNGQPENNYKTTPPVLDSDGSFFLVSKLTVDKSRWQQGNVFSCSVMHEALHNHYTQKSLSLSPGK
light 2: EVQLVESGGGLVQPGKSLKLSCEASGFTFSGYGMHWVRQAPGRGLESVAYITSSSINIKYADAVKGRFTVSRDNAKNLLFLQMNILKSEDTAMYYCARFDWDKNYWGQGTMVTVSSDFTPPTVKILQSSSDGGGHFPPTIQLLCLVSGYTPGTIQITWLEDGQVMDVDLSTASTTQEGELASTQSELTLSQKHWLSDRTYTCQVTYQGHTFEDSTKKCADSN
heavy 2: DIQMTQSPSSLPASLGDRVTINCQASQDISNYLNWYQQKPGKAPKLLIYYTNKLADGVPSRFSGSGSGRDSSFTISSLESEDIGSYYCQQYYNYPWTFGPGTKLEIKDFTPPTVKILQSSCDGGGHFPPTIQLLCLVSGYTPGTINITWLEDGQVMDVDLSTASTTQEGELASTQSELTLSQKHWLSDRTYTCQVTYQGHTFEDSTKKSADSNGTDKTHTCPPCPAPPVAGPSVFLFPPKPKDTLMISRTPEVTCVVVDVSHEDPEVKFNWYVDGVEVHNAKTKPREEQYNSTYRVVSVLTVLHQDWLNGKEYKCKVSNKGLPSSIEKTISKAKGQPREPQVYTLPPCRDELTKNQVSLWCLVKGFYPSDIAVEWESNGQPENNYKTTPPVLDSDGSFFLYSKLTVDKSRWQQGNVFSCSVMHEALHNHYTQKSLSLSPGK
notes: In molecule I the 2C11 VH sits on the 'light chain' and the VL on the Fc-bearing chain; also called eIg FAP × moCD3 I
[8]
  EC50: 7.3 nM
[9]
  EC50: 2.9 nM

B16: bivalent and bispecific eIg molecule targeting FAP and mouse CD3, molecule II (bispecific antibody)
light 1: B15 light 1
heavy 1: B15 heavy 1
light 2: DIQMTQSPSSLPASLGDRVTINCQASQDISNYLNWYQQKPGKAPKLLIYYTNKLADGVPSRFSGSGSGRDSSFTISSLESEDIGSYYCQQYYNYPWTFGPGTKLEIKDFTPPTVKILQSSSDGGGHFPPTIQLLCLVSGYTPGTIQITWLEDGQVMDVDLSTASTTQEGELASTQSELTLSQKHWLSDRTYTCQVTYQGHTFEDSTKKCADSN
heavy 2: EVQLVESGGGLVQPGKSLKLSCEASGFTFSGYGMHWVRQAPGRGLESVAYITSSSINIKYADAVKGRFTVSRDNAKNLLFLQMNILKSEDTAMYYCARFDWDKNYWGQGTMVTVSSDFTPPTVKILQSSCDGGGHFPPTIQLLCLVSGYTPGTINITWLEDGQVMDVDLSTASTTQEGELASTQSELTLSQKHWLSDRTYTCQVTYQGHTFEDSTKKSADSNGTDKTHTCPPCPAPPVAGPSVFLFPPKPKDTLMISRTPEVTCVVVDVSHEDPEVKFNWYVDGVEVHNAKTKPREEQYNSTYRVVSVLTVLHQDWLNGKEYKCKVSNKGLPSSIEKTISKAKGQPREPQVYTLPPCRDELTKNQVSLWCLVKGFYPSDIAVEWESNGQPENNYKTTPPVLDSDGSFFLYSKLTVDKSRWQQGNVFSCSVMHEALHNHYTQKSLSLSPGK
notes: also called eIg FAP × moCD3 II; second molecule
[8]
  EC50: 24.2 nM
[9]
  EC50: 2.7 nM
